Laboratory results reported in publication PMC8315086 (Cell Discovery, 2021).

Experiments:
Settings in all cases: both partners purified
[1] = target: SARS-CoV-2 S1-His protein (SARS-CoV-2); assay: ELISA
[2] = target: SARS-CoV-2 S1-hFc protein (SARS-CoV-2); assay: ELISA
[3] = target: T1, recombinant SARS-CoV-2 S1 protein (Kactus Biosystems) (SARS-CoV-2, original wild type …, UniProt P0DTC2); assay: SPR
[4] = target: T1, recombinant SARS-CoV-2 S1 protein …; assay: SPR; remark: listed apart in the source

B1: 2B11 monoclonal antibody (full-length human IgG1) (antibody, V domains shown)
VH: EVQLVESGGGLVQPGGSLRLSCAASEITVSSNYMNWVRQAPGKGLEWVSVIYSGGTTYYADSVKGRFTISRDNSENTLYLQMNSLRAEDTAVYYCARDLMEVGGMDVWGQGTTVTVSS
VL: LPVLTQPPSASGTPGQRVTISCSGSSSNVENDNVNWFQQQVPGSTPKLVIYNDRLRPSGVPDRFSGSKSGTSAYLAISGLQSEDEADYYCVAWDASLQSYVFGTGTKVTVL
EC50 [1]: 0.051 nM | IC50 [2]: 2.79 nM | Kd [3]: 4.67 nM | Kd [4]: 4.76 nM
